In US5851983A, “Elastase inhibitory polypeptide and process for production thereof by recombinant gene technology” (Teijin Limited, priority 1987, dated 1998):

Tests used:
Human plasma plasmin [1] = biological target: T1, Human plasma plasmin (Homo sapiens, UniProt P00747); test: Assay for plasmin inhibitory activity (Example 36); type: biochemical; conditions: final concentration up to ×10^-5 M; enzyme 1.0 × 10^-7 M
T1 construct: (6) Human plasma plasmin (Kabi, Daiichi Kagaku Yakuhin); purchased Kabi (via Daiichi Kagaku Yakuhin); host or cells: human plasma
T1 sequence (P00747 581-810 limits assumed): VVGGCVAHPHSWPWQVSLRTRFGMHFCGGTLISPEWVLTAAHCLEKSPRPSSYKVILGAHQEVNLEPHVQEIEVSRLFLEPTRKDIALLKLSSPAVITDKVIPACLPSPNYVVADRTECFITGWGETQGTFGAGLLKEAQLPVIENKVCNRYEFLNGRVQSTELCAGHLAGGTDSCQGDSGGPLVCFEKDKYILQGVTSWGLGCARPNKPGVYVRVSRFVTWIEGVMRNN
T1 sequence (P00747 97-580 partner limits assumed): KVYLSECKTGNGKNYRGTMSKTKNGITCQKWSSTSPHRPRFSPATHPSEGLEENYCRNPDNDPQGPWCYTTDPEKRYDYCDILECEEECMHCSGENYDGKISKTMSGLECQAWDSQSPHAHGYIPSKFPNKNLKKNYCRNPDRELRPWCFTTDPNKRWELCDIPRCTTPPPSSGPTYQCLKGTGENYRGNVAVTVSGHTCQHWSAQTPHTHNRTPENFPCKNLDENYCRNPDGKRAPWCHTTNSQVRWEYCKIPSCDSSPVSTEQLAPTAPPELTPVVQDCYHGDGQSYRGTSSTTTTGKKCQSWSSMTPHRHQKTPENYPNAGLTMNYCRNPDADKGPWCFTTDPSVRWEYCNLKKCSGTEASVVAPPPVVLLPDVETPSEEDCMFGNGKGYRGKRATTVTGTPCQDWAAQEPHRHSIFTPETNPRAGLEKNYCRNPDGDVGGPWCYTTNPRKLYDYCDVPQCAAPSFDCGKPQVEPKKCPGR
Description: (§1) G. Human plasma plasmin (sigma)
(§2) Plasmin: 50 mM Tris-HCl, 100 mM NaCl (pH 7.4) […]
(§3) Substrate solution: for the enzymes F, G, H and I, the following substrate f, g, h or i, respectively, was dissolved to a final concentration shown in Table 24.
(§4) g. H.D-Val-Leu-Lys-pNA (Kabi Vitrum)
(§5) To wells of an ELISA 96-well microtiter plate, were added a solution of (Arg^58 -Ala^107) SLPI obtained in Example 34 and then the enzyme solution, and the mixture was incubated at 37° C. for 10 minutes. Next, the substrate solution was added to develop the color, whose absorption was then measured at 405 nm. As a control, SLPI was used.

[2] = biological target: T2, polymorphonuclear leucocyte elastase from human sputum (Homo sapiens, UniProt P08246); test: Assay for elastase inhibitor activity (Example 24); type: biochemical; conditions: enzyme 2 × 10^-8 M, substrate 3.0 × 10^-4 M
T2 construct: Polymorphonuclear leukocyte elastase from human sputum (EPC Co; Funakoshi Yakuhin); purchased EPC Co. (via Funakoshi Yakuhin); host or cells: human sputum
T2 sequence (P08246 30-267): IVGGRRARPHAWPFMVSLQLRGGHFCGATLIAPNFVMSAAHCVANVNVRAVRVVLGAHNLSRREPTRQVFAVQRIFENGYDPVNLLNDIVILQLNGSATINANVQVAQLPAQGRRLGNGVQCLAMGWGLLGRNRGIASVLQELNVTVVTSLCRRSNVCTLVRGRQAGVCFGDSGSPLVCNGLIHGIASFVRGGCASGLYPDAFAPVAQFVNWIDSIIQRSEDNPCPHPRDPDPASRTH
Description: The following assay method was used.
Buffer: 0.1M (2-hydroxyethyl)piperazine-N'-2-ethansulfonic acid (HEPES), 0.5M NaCl, pH 7.5.
Enzyme concentration: the following enzyme was dissolved in the above-mentioned buffer to a concentration 9 times that shown in Table 12.
A. Polymorphonuclear leucocyte elastase from human sputum (EPC Co., Funakoshi Yakuhin)
Substrate solution: for the enzymes A, B, C, D and E, the following substrate a, b, c, d or e, respectively, was dissolved in a solution of DMSO+the above-mentioned buffer (1:9) (note, final concentration of DMSO was 10% in the buffer) to a concentration of 9 times that shown in Table 12.
a. MeO-Suc-Ala-Ala-Pro-Val-pNA (Bachem) […]
To wells of an ELISA 96-well microtiter plate, were added 120 μl of the buffer and the 20 μl of a sample solution of (Arg^59 -Ala^107) SLPI obtained in Example 23, followed by 20 μl of the enzyme solution. The mixture was reacted at 37° C. for 10 minutes. Next, 20 μl of the substrate was added, and developed at 37° C. The developed color was measured by absorption at 405 nm.
As a control the same procedure was carried out using SLPI.

[3] = biological target: T2, polymorphonuclear leucocyte elastase from human sputum; test: Simultaneous treatment with healthy human saliva and elastase (Examples 28, 29); type: in vitro ADME; conditions: 37° C.
Description: (1) Healthy human saliva was ultra-filtered through a 0.22 μm filter (Millex GS, Millipore), and to the filtered saliva were added SLPI and polymorphonuclear leucocyte elastase from human sputum (EPC, Funakoshi Yakuhin) to a final concentration of 50 μM respectively. The mixture was incubated at 37° C., samples were taken as time elapsed, and analyzed by SDS-PAGE as described in Example 27.
(2) Next, the band J was transferred to a membrane as described in Example 27, and N-terminal amino acid sequence was analyzed.
(1) According to the same procedure as described in Example 28, to healthy human saliva were dissolved SLPI and polymorphonuclear leucocyte elastase from human sputum to final concentrations of 50 μM and 100 μM respectively, and the mixture was incubated at 37° C. Samples were taken as time elapsed, and analyzed by SDS-PAGE.
(2) Next, N-terminal amino acid sequence of the band M was analyzed as described in Example 27.

elastase and trypsin = conditions: R. C. Thompson et al., Proc. Natl. Acad. Sci. USA, 83, 6692; cited from earlier work
Human plasma thrombin = biological target: T3, Human plasma thrombin (Homo sapiens, UniProt P00734); test: Assay for thrombin inhibitory activity (Example 36); type: biochemical; conditions: final concentration up to ×10^-5 M; enzyme 3 × 10^-9 M
T3 construct: (5) Human plasma thrombin (Kabi, Daiichi Kagaku Yakuhin); purchased Kabi (via Daiichi Kagaku Yakuhin); host or cells: human plasma
Description: F. Human plasma thrombin (Sigma)
(§6) Thrombin and FXa: 50 mM Tris-HCl, 7.5 mM EDTA-2Na, 175 mM NaCl (pH 8.4) […]
as §3
f. H.D-Phe-Pip-Arg-pNA (Kabi Vitrum)
as §5

Human plasma kallikrein [4] = biological target: T4, Human plasma kallikrein (Homo sapiens, UniProt P03952); test: Assay for kallikrein inhibitory activity (Example 36); type: biochemical; conditions: final concentration up to ×10^-5 M; enzyme 1.0 × 10^-7 M
T4 construct: (7) Human plasma kallikrein (Kabi, Daiichi Kagaku Yakuhin); purchased Kabi (via Daiichi Kagaku Yakuhin); host or cells: human plasma
T4 sequence (P03952 391-638 limits assumed): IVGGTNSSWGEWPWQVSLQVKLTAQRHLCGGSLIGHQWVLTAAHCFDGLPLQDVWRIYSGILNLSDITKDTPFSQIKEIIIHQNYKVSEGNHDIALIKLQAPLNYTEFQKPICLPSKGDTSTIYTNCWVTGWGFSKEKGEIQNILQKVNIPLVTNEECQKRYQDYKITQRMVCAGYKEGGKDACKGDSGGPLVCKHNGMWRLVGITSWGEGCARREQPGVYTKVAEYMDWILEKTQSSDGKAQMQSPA
T4 sequence (P03952 20-390 partner limits assumed): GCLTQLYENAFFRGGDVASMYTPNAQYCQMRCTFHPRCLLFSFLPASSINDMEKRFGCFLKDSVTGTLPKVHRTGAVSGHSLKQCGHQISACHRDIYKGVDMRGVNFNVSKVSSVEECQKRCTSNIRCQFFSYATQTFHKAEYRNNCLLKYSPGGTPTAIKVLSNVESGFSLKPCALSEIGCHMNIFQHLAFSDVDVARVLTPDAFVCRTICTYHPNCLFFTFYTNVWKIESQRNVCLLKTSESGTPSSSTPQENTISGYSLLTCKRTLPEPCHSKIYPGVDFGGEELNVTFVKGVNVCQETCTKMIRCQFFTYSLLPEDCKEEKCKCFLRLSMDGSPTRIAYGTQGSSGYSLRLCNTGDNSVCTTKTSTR
Description: (§7) H. Human plasma kallikrein (Protogene, Funakoshi Yakuhin)
Kallikrein: 50 mM Tris-HCl, 361 mM NaCl, 0.01 mg/ml Polybrene (pH 7.8) […]
as §3
(§8) h. H.D-Pro-Phe-Arg-pNA (Kabi Vitram)
as §5

Porcine FXa [5] = test: Assay for Fxa inhibitory activity (Example 25); type: biochemical; conditions: final concentration up to ×10^-5 M; enzyme 1.0 × 10^-8 M
Description: (§9) I. Porcine FXa (Daichi Seiyaku)
Buffer: Buffer solution for each enzyme is as follow. Thrombin and FXa: 50 mM Tris-HCl, 7.5 mM EDTA-2Na, 175 mM NaCl (pH 8.4) […]
(§10) Substrate solution: for the enzymes F, G, H and I, the following substrate f, g, h or i, respectively, was dissolved to a final concentration shown in Table 14.
i. Ratio 1:1 mixture of the following compounds: [drawing 5]
as §5, with “(Arg^59” for “(Arg^58”, “23” for “34”

Human plasma kallikrein [6] = biological target: T4, Human plasma kallikrein; test: Assay for kallikrein inhibitory activity (Example 25); type: biochemical; conditions: final concentration up to ×10^-5 M; enzyme 1.0 × 10^-7 M
Description: as §7
Kallikrein: 50 mM Tris-HCl, 361 mM NaCl, 0.01 mg/ml polybrene (pH 7.8) […]
as §10, §8
as §5, with “(Arg^59” for “(Arg^58”, “23” for “34”

Human plasma plasmin [7] = biological target: T1, Human plasma plasmin; test: Assay for plasmin inhibitory activity (Example 25); type: biochemical; conditions: final concentration up to ×10^-5 M; enzyme 1.0 × 10^-7 M
Description: as §1, §2, §10, §4
as §5, with “(Arg^59” for “(Arg^58”, “23” for “34”

Porcine FXa [8] = test: Assay for Fxa inhibitory activity (Example 36); type: biochemical; conditions: final concentration up to ×10^-5 M; enzyme 1.0 × 10^-8 M
Description: as §9, §6, §3
i. Ratio 1:1 mixture of the following compounds: [drawing 6]
as §5

inhibitory activity to plasmin (Human plasma plasmin [1]): did not exhibit inhibitory activity
IC50 [2]: 13 nM
inhibitory activity to thrombin (Human plasma thrombin): did not exhibit inhibitory activity
inhibitory activity to kallikrein (Human plasma kallikrein [4]): did not exhibit inhibitory activity
inhibitory activity to kallikrein (Human plasma kallikrein [6]): did not exhibit inhibitory activity
inhibitory activity to plasmin (Human plasma plasmin [7]): did not exhibit inhibitory activity
B1: SLPI: Human secretory leukoprotease inhibitor; recombinant SLPI of Reference Example 1 used as control (protein)
chain: SGKSFKAGVCPPKKSAQCLRYKKPECQSDWQCPGKKRCCPDTCGIKCLDPVDTPNPTRRKPGKCPVTYGQCLMLNPPNFCEMDGQCKRDLKCCMGMCGKSCVSPVKA
SDS-PAGE bands on simultaneous treatment with healthy human saliva and elastase ([3]; 50 μM polypeptide, elastase 50 μM (Example 28) or 100 μM (Example 29)): after 96 hours, a new band J with a molecular weight of about 5,500 appeared
cleavage site on simultaneous treatment with healthy human saliva and elastase ([3]; N-terminal sequencing of SDS-PAGE band): cleaved at the site between Thr^57 -Arg^58
Ki(E) compared with Ki(T) (elastase and trypsin): Ki(E) is roughly equivalent to Ki(T)
inhibitory activity to FXa (Porcine FXa [5]): did not exhibit inhibitory activity
inhibitory activity to FXa (Porcine FXa [8]): did not exhibit inhibitory activity
